Measured values published in publication PMC12990809.

Legend:
Assay in all cases: pulldown
[1] = target: T1, Tb927.7.320 T9S (Trypanosoma brucei) (UniProt Q57U22); settings: 20 nM protein, 1.5 uM RNA pool; 20 mM HEPES pH 7.8, 70 mM KCl, 10 mM NaCl, 10% glycerol, 2 mM DTT, 0.1 ug/uL BSA; 30 min, 4 C
T1 sequence: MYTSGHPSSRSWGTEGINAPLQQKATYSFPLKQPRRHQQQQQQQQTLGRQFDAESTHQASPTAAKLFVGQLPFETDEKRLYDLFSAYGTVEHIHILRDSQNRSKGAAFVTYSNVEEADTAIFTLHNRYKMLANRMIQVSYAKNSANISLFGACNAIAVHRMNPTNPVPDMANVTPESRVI

[2] = target: T2, NCU00556 (Neurospora crassa) (UniProt Q7SF93); settings: 20 nM protein, 1.5 uM RNA pool; 20 mM HEPES pH 7.8, 70 mM KCl, 10 mM NaCl, 10% glycerol, 2 mM DTT, 0.1 ug/uL BSA; 30 min, 4 C
T2 sequence: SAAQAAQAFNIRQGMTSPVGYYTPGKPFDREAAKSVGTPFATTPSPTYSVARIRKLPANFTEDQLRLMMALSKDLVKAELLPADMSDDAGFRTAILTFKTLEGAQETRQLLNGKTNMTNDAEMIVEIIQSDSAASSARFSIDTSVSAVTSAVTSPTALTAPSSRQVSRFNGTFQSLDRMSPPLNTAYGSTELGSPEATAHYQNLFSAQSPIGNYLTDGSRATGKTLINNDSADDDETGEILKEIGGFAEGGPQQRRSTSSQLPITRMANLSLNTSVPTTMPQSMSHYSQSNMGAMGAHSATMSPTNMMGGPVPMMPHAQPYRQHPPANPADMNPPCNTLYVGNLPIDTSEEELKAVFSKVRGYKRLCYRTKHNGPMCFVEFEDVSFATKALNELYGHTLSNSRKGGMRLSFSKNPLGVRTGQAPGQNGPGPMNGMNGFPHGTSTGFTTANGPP

[3] = target: T3, PK00353.1 del132-144;P293S (Cannabis sativa) (UniProt A0A7J6GFS8); settings: 20 nM protein, 1.5 uM RNA pool; 20 mM HEPES pH 7.8, 70 mM KCl, 10 mM NaCl, 10% glycerol, 2 mM DTT, 0.1 ug/uL BSA; 30 min, 4 C
T3 sequence: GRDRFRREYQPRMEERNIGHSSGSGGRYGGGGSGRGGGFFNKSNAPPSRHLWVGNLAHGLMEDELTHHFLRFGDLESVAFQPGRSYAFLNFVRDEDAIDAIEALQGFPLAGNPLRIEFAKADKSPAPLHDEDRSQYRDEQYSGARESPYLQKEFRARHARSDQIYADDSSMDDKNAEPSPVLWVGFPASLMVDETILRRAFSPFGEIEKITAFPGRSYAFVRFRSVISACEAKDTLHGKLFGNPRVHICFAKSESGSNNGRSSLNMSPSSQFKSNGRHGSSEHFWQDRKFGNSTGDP

KHDRBS3 (Homo sapiens) = target: T4, KHDRBS3 (Homo sapiens) (UniProt O75525); settings: 20 nM protein, 1.5 uM RNA pool; 20 mM HEPES pH 7.8, 70 mM KCl, 10 mM NaCl, 10% glycerol, 2 mM DTT, 0.1 ug/uL BSA; 30 min, 4 C (protocol of this paper; not …); cited from earlier work
T4 sequence: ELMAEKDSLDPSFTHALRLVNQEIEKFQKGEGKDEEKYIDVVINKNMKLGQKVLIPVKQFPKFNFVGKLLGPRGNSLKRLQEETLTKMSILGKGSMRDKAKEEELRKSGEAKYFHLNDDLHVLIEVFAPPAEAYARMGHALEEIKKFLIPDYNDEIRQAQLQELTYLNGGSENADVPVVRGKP

[4] = target: T5, Tb11.01.5690 S174N (Trypanosoma brucei) (UniProt Q382C7); settings: 20 nM protein, 1.5 uM RNA pool; 20 mM HEPES pH 7.8, 70 mM KCl, 10 mM NaCl, 10% glycerol, 2 mM DTT, 0.1 ug/uL BSA; 30 min, 4 C
T5 sequence: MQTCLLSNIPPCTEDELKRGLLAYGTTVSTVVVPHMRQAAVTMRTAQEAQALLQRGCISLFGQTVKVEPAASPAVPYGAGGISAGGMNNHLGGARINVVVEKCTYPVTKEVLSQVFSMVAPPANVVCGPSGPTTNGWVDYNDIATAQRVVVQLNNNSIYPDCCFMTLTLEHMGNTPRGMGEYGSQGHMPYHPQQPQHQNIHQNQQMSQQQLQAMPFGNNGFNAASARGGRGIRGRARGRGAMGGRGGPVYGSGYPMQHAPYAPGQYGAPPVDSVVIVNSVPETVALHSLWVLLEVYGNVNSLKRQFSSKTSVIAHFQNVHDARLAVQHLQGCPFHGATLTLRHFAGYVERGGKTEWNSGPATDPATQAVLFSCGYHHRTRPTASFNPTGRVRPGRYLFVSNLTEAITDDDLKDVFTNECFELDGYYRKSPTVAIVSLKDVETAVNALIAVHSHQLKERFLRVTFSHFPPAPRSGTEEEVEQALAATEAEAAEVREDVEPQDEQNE

[5] = target: T6, PK07890.1 (Cannabis sativa) (UniProt A0A7J6I7X4); settings: 20 nM protein, 1.5 uM RNA pool; 20 mM HEPES pH 7.8, 70 mM KCl, 10 mM NaCl, 10% glycerol, 2 mM DTT, 0.1 ug/uL BSA; 30 min, 4 C
T6 sequence: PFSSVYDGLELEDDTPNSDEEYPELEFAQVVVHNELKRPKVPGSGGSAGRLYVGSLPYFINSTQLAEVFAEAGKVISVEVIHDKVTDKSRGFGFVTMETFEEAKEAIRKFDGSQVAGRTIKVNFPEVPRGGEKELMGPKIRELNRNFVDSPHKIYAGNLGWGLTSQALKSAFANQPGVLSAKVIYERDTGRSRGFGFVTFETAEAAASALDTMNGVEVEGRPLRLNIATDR

[6] = target: T7, CG4806 (Drosophila melanogaster) (UniProt Q3ZAN6); settings: 20 nM protein, 1.5 uM RNA pool; 20 mM HEPES pH 7.8, 70 mM KCl, 10 mM NaCl, 10% glycerol, 2 mM DTT, 0.1 ug/uL BSA; 30 min, 4 C
T7 sequence: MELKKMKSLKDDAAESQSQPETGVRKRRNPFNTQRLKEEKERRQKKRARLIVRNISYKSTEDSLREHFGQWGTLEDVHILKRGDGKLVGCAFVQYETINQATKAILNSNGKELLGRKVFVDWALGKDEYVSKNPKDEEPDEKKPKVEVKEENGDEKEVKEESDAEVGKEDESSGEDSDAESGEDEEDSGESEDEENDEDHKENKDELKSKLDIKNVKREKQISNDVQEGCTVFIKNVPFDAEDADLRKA

[7] = tested on: T8, ENSMODG00000011903 (Monodelphis domestica); settings: 20 nM protein, 1.5 uM RNA pool; 20 mM HEPES pH 7.8, 70 mM KCl, 10 mM NaCl, 10% glycerol, 2 mM DTT, 0.1 ug/uL BSA; 30 min, 4 C
T8 sequence: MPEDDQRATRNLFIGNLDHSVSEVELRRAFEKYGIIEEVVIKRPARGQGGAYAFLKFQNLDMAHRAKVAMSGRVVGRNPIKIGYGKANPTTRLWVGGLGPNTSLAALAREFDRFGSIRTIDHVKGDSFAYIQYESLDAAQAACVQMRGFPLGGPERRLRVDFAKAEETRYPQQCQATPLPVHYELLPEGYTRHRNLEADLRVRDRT

[8] = target: lark (Drosophila melanogaster) (UniProt Q94901); settings: 20 nM protein, 1.5 uM RNA pool; 20 mM HEPES pH 7.8, 70 mM KCl, 10 mM NaCl, 10% glycerol, 2 mM DTT, 0.1 ug/uL BSA; 30 min, 4 C (protocol of this paper; not …); cited from earlier work
lark (Drosophila melanogaster), sequence (Q94901 1-207): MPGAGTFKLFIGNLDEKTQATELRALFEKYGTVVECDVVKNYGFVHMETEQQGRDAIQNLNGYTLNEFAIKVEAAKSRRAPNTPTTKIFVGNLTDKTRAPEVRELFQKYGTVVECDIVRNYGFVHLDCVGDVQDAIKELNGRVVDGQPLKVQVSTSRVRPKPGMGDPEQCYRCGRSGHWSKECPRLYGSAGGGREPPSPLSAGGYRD

UUUGCUU [RNAcompete motif RNCMPT00751] gave a binding signal (z-score (mean of top ten 7-mers)) [1] of 12.5.
Work on UUGCAU [RNAcompete motif RNCMPT00754] yielded a binding signal (z-score (mean of top ten 7-mers)) [2] of 14.3.
In the case of CAAAGCA [RNAcompete motif RNCMPT00789], the binding signal (z-score (mean of top ten 7-mers)) [3] is reported as 7.23.
For GAUAAAC [RNAcompete motif RNCMPT00034], the binding signal (z-score (mean of top ten 7-mers)) (KHDRBS3 (Homo sapiens)) is given as 9.52.
With GAAAGAAA [RNAcompete motif RNCMPT00773] the binding signal (z-score (mean of top ten 7-mers)) [4] was 9.18.
With GAUACU [RNAcompete motif RNCMPT00790] the binding signal (z-score (mean of top ten 7-mers)) [5] was 15.3.
Sequence CUGUAGUA [RNAcompete motif RNCMPT00784] has a binding signal (z-score (mean of top ten 7-mers)) [6] of 7.2.
With UUUUUUG [RNAcompete motif RNCMPT00758] the binding signal (z-score (mean of top ten 7-mers)) [7] was 7.84.
For UCGCGCG [RNAcompete motif RNCMPT00097], the binding signal (z-score (mean of top ten 7-mers)) [8] is given as 15.5.
